This is an account of results in US7026125, “Heterodimers of retinoid X receptors (RXRS) and other steroid hormone receptors” (Ligand Pharmaceuticals).

Common to all, as to details: label: 32P
The target in series [1] is RXRα (Homo sapiens, UniProt P19793 P19793:1-462). As to the kind of experiment: EMSA; at concentration used. Here is the method:
(§1) (b) Gel retardation analysis of RXRα-TRα interaction using different DNA response elements. Gel retardation assays were carried out essentially as described in FIG. 1a but using different response elements. (−) represents the binding of unprogrammed reticulocyte lysate.
(§2) In vitro translated receptor protein (1 to 5 μl depending on the translation efficiency) was incubated with the ^32P-labeled oligonucleotides in a 20-μl reaction mixture containing 10 mM hepes buffer, pH 7.9, 50 mM KCl, 1 mM DTT, 2.5 mM MgCl, 10% glycerol, and 1 μg of poly(dI-dC) at 25° C. for 20 minutes. In general, relative low receptor concentration was used to obtain the clear effect of heterodimer formation. The reaction mixture was then loaded on a 5% nondenaturing ployacrylamide gel containing 0.5×TBE (1×TBE=0.089 M Tris-borate, 0.089 M boric acid, and 0.002 M EDTA). To analyze the effect of RXRα or the nuclear proteins on receptor DNA binding activity, RXRα or the cell extracts were preincubated with receptor protein at room temperature for 10 minutes before performing the DNA binding assay. When antibody was used, 1 μl of the antiserum was incubated with the specific translation products at room temperature for 45 minutes before performing the experiments described above.

Series [2] concerns the target T1, TRα/RXRα heterodimer (UniProt P10827-2;P19793 P10827-2:1-410,P19793:1-462). As to the kind of experiment: EMSA; TRα binding abolished by RXRα. Here is the method: as §2
A general note: In EMSA bound probe runs differently from free probe, usually more slowly.

Series [3] deals with T2, TRα (UniProt P10827-2 P10827-2:1-410).
T2 sequence: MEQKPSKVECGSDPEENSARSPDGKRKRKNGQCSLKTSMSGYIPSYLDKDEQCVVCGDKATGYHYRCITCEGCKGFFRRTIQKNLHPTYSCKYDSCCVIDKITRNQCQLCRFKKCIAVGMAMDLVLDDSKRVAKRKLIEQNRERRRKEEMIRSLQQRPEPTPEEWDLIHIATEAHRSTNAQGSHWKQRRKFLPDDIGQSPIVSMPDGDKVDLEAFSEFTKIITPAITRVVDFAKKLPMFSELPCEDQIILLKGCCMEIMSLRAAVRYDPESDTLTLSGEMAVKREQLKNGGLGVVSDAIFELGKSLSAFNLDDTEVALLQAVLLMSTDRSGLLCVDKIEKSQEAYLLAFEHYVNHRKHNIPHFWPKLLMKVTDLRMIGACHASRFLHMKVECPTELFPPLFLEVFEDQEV
The series can be described thus: EMSA; about as efficient as palindromic TRE. The protocol:
as §2

Series [4] concerns the target T1, TRα/RXRα heterodimer. As to the kind of experiment: EMSA; strongly enhanced and upshifted versus TRα alone. Here is the method:
as §2

Series [5] has as its target T2, TRα. As to the kind of experiment: EMSA; one complex. Here is the method:
as §2

For series [6], the target named is T2, TRα. As to the kind of experiment: EMSA. The protocol: as §2
Series [7] concerns the target T1, TRα/RXRα heterodimer. As to the kind of experiment: EMSA; strong binding. Here is the method:
as §2

Series [8] deals with T2, TRα. The series can be described thus: EMSA; no visible binding. Here is the method:
as §1, §2

RXRα, sequence (P19793 whole entry, one chain of several): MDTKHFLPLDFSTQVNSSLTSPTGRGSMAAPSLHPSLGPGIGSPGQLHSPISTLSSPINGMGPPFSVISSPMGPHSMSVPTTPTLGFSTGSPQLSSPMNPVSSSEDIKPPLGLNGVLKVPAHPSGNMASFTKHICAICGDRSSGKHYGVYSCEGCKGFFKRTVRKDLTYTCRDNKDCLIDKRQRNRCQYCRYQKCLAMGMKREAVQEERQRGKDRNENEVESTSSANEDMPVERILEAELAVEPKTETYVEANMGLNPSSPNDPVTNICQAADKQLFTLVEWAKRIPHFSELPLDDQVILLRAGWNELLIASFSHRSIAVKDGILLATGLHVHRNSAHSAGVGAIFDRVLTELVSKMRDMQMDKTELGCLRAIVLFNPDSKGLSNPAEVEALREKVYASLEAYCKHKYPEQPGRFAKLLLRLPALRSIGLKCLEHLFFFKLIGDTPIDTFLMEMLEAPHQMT
T1 sequence (P19793 whole entry, one chain of several): as above

B1: TRE/half (dsDNA)
DNA 1: GATCTCAGGTCAGATC
DNA 2: GATCTGACCTGAGATC
For the molecule B1, the binding result is listed as “no binding” in series [1], “no binding” in series [2] and “binds” in series [3].

B2: TRE/OP (inverted repeat, 4 bp spacer) (dsDNA)
DNA 1: GATCCTGACCTGAGATCTCAGGTCAGGATC
DNA 2: GATCCTGACCTGAGATCTCAGGTCAGGATC
Regarding B2, the binding result in series [1] is given as “no binding”; in series [4], “binds”; in series [5], “binds”.

B3: ERE palindrome (dsDNA)
DNA 1: GATCTCAGGTCACTGTGACCTGAGATC
DNA 2: GATCTCAGGTCACAGTGACCTGAGATC
For the molecule B3, the binding result was “no binding” in series [1], “no binding” in series [2] and “binds” in series [6].

B4: βRARE (dsDNA)
DNA 1: GATCAGGGTTCAGGCAAAGTTCACGATC
DNA 2: GATCGTGAACTTTGCCTGAACCCTGATC
In the case of B4, the binding result in series [1] is recorded as “no binding”; in series [7], “binds”; in series [8] it was “no binding”.
